According to the DeepSol protein solubility set:

assay: soluble on expression in E. coli; label from the status in PepcDB or PDB records

| Sequence | soluble on expression in E. coli |
| --- | --- |
| MDYNVKDFGALGDGVSDDRASIQAAIDAAYAAGGGTVYLPAGEYRVSAAGEPGDGCLMLKDGVYLAGAGMGETVIKLIDGSDQKITGMVRSAYGEETSNFGMRDLTLDGNRDNTSGKVDGWFNGYIPGGDGADRDVTIERVEVREMSGYGFDPHEQTINLTIRDSVAHDNGLDGFVADYLVDSVFENNVAYANDRHGFNVVTSTHDFVMTNNVAYGNGSSGLVVQRGLEDLALPSNILIDGGAYYDNAREGVLLKMTSDITLQNADIHGNGSSGVRVYGAQDVQILDNQIHDNAQAAAVPEVLLQSFDDTAGASGTYYTTLNTRIEGNTISGSANSTYGIQERNDGTDYSSLIDNDIAGVQQPIQLYGPHSTVSGEP | soluble |
| MGSDKIHHHHHHMADAETIRSYDQLAREQAAFQRHLQPTAIYRLVETFFHPGRPTIDIGSGSGRDVAWLNQHGYQAIGLEPSAGMIAEARAAYAGIEIRQGALPDLAGIADASFDNVLCVAVLMHLPAAELIGAVINLARILRPGGRLIVSYRTPPPEGERAHDGRLYTVIPPARLMLLLESSGLQILFSEDLPDPHRPSIRWFNMVAEKSDRDVSRGLERVGSVLAHDRKTATYKLALLRALCIIARNAFNLVEWSSDVVYVLLRAIATQWLIFYWPLLTSSEFIAQIRGEHPLSPKPIAFRPAITSLAKQLGGAAGLYNVLRILEEDPHRYDDILKLIANTIRKGPVTYSGSIHSPIFSYRPGKSDTFGWVAVPIDIWLDICRFNHWIEDSIVLRWAYLTDELNRTADPGRYLSLLVAKPLHERDTQEVRQALNRSPELFCVWTGQRLGHGYEVDHVIPYSVWGNNDLWNLLPAHPRINQTKRDALPARSILLARREAIIDYWQRYAQIDVFQPRFAVQIHRALGCNLRHADWPKLAFAGLEEVVERTAIVRGLPRWSP | not soluble |
| MQNVKHSYLACSSSSCCQFFSLFLSLCHAEHQIQTLSPSFAYTLLIFALLVSDKSEIALLSRHTHTYIFLPISSVHPSLELLPFVVFMHMRKLLNDVIRPLKKGDGRSAWNVLIVDTLAMRMLSSCCKMHNIMEEGITIVEDLNKRREPLPTLEAIYLIAPTAESIDKLIQDYCARNLYKCAHVFFTEACSDQLFSTLSKSAAARFIKTLKEINIAFTPYESQVFNLDSPDTFFLYYNAQKQGGLTSNLERIAEQIATVCATLGEYPSLRYRADFERNVELGHLVEQKLDAYKADDPSMGEGADKARSQLIIIDRGYDAITPLLHELTLQAMCYDLLGIENDVYKYETGGSDENLEKEVLLDENDDLWVEMRHKHIAVVSQEVTKNLKKFSESKGNKGTMDSKSIKDLSMLIKRMPQHKKELNKFSTHISLAEECMKQYQQGVDKLCKVEQDLSTGIDAEGERVRDAMKLMVPLLIDPAVRCEDRLRLILLYILSKNGITDENLNKLLQHANISMADKETITNAAYLGLNIVTDTGRKKTWTPTKKERPHEQVYQSSRWVPVIKDIIEDAIDERLDTKHFPFLAGRQVNQGYRAPASARYGQWHKERGQQSNYRSGPRLIIYIIGGVTFSEMRACYEVTAARKPWEVVIGSDRIITPDKFLTNLRDLNKPRDI | soluble |
| MGSDKIHHHHHHMIFVGCSGWSYEEWNGVFYPKSKINKLKFYSTMFNTVEVNSTFYREINNDIINRWIETVRGKNFIFSIKVPQNITHKAILEKDSNSKSLYETFIDKTVRPIRNARMLGAVLVQLPPSFNSNLQTELLDTICCENEYRTAVEVRNKDLYSNEELRKELEKRGIAIVDVDSTEHPLSNLNSGLKWSYVRLHGRAQLGWKSQNPYDYRYSEQEISDLSSKIMAKNYDEIFVYFNNHPRGSAPINALKMASCLGISNNWFF | not soluble |
| MAHHHHHHMMLKVRYENFNDLRNDDEMLNISFVAHPCYYSILDLEESELFNKIVYENFCKVAEKVDIYDKNEYLSVYRRHDKKCRELHMLKSWELLKNTYRYKMPVIFKNLKDFDLYNMEKIPFYSINYNKKKKGTKENGFVVRNKKKINIIDKGKCFILDNHMIYSMTPEYIANNISKNILLNTHHIMKGNNILSLKEDDKYVKHQKVNDNPYYFKLRYHYNDDDIYCKDNYSYKRKGISPIKKKRKIEPILYNNKKMDYEEKKRILIYLDPFAGAGGNCNHMNNIFTIGCDINFYRIKQCQHNCNFYNKNVDFILCDFFNLVTHFRKGTIDVIFFSIPWGGPKYKNKKNFELNTEIMDNISIYKCIEVSVELTENLVFYLPRNVCMKELYYLYGYYKELVKNKKCVNYENDDIYKYDRKGEGGKKKKKKKKKKILS | not soluble |
| MENYLIDNLDRGILEALMGNARTAYAELAKQFGVSPETIHVRVEKMKQAGIITGARIDVSPKQLGYDVGCFIGIILKSAKDYPSALAKLESLDEVTEAYYTTGHYSIFIKVMCRSIDALQHVLINKIQTIDEIQSTETLIVLQNPIMRTIKP | soluble |
| MLRIYAPASSANISVGFDTLGAAISPIDGSLLGDVVQIESISTGFELESAGYFVRKLPKEPQKNIVYQAYVLFSEQLKLRGANVKPLRLTLEKNMPIGSGLGSSACSIVAALVALNQFHNEPFSKMELLEMMGELEGRISGSIHYDNVAPCYLGGVQFMVQS | not soluble |
| GMMFKWPWKADDESGNAEMPWEQALAIPVLAHLSSTEQHKLTQMAARFLQQKRLVALQGLELTPLHQARIAMLFCLPVLELGIEWLDGFHEVLIYPAPFIVDDEWEDDIGLVHNQRVVQSGQSWQQGPVVLNWLDIQDSFDASGFNLVVHEVAHKLDTRNGDRASGVPLIPLREVAGWEHDLHAAMNNIQDEIDLVGESAASIDAYAATDPAECFAVLSEYFFSAPELFAPRFPALWQRFCHFYRQDPLARRRENGLQDEGDRRIVH | soluble |
| MGSDKIHHHHHHMTERIRIGISSCLLGNKVRHDGGHKFDSYIVNVLGRYLDFVPVCPEVECGLPTPREPMRLAGDVHSPRLMTSKTWQDKTEQMQTWADSKVRELEGQGLCGFIFKRGSPSSGMERVKVYPFTDPREVKNVGAPVLKGSGLFARTFMEHFPLLPVEEEGRLNDPVLRENFIERLFVVRRWYDLLESGMAPGAVVEFHTRHKLLLLAHSTQKYREMGRLVAAVREYSPEQFRTEYRRLLMEALSVRATAGRHANVQQHIMGYFRRQLTTDEKQELVEIIDRYRNGLVPLIVPVTMLNHYVRKYGDEYLAGQYYLNPHPVELKLRNHI | not soluble |
| MARWERIVDGVKSIALMRKKIITRGKRIALFVDGPNILRKELGIHLEDIVEALSKLGNIRVAKVILNQYAPQSLIEAVSNQGFEPVIVAGEIGVKMAVEAMREVYNPNIDMIALATRNTEFVPIILKAKEKGKETAIIGVEHGLSSALKHAADYVIILKPRGEKIEERHHEDSEERREGGRGA | not soluble |
| MGSDKIHHHHHHVNVPTEFDINVLRADFDKTRLPRSRAQQMPGKMYTSSEVAALEKKRIFMDTWLCAGREEEIANPGDYMTREIASEPFVLSRDKEGKVHAFLNMCLHRGVPVAEGSGNARGFSCPYHAWYYDLQGTLLAAPLMEQSEANLKNCRLKPMRLALWRGWIFVSFNPDAMPFETFIAPFEENLWWFKSDECRLSERVVLQIDCNWKLLVENLIDIYHVPVLHKASFGGFLKSDKEKLSFNLLPRGGWYYEQKARPHSKSGQQLFPTLPWLEGMDSGTSMKAGIFPNLNLSLRFDSLRMWQVWPTSTGKSELHLYSLFMPAAFEDPDFQKHYEEYKSFLLGAIVNEDGPMVVKLQQAMGSEFYAPGPLSHLEGAVHHLMNYYLDVVSGEDRND | not soluble |
| MSQLQEMMTVVSQREVAYNIFEMVLKGTLVDEMDLPGQFLHLAVPNGAMLLRRPISISSWDKRAKTCTILYRIGDETTGTYKLSKLESGAKVDVMGPLGNGFPVAEVTSTDKILIIGGGIGVPPLYELAKQLEKTGCQMTILLGFASENVKILENEFSNLKNVTLKIATDDGSYGTKGHVGMLMNEIDFEVDALYTCGAPAMLKAVAKKYDQLERLYISMESRMACGIGACYACVEHDKEDESHALKVCEDGPVFLGKQLSL | soluble |
| MRSYDFSPLYRATVGFDRIADLMDRVMTSEVAQPTYPPYNIEKTAENAYRISIAVAGFTPDELAVEVKENTLHVGARKAADEAERTYLHRGIATRAFERRFALADHVRVSGATHEHGMLHIDLVRETPEALKPRRIEIARGDLGGTRSIEAVKEPVEA | not soluble |
| MRGSHHHHHHGMASMTGGQQMGRDLYDDDDKDHPFTEGRSWPSAPDDSKAQAHRIHIDPEIQDGSPTTSRRPSGTGTGPEDGRPSLGSPYGKPPCFPVPHNGSSEATLPAQMSTLHVSPPPSADPAEASRGAGSRVDLGSEVYRMLREPAEPVAAEPKQSGSFRYLQGMLEAGEGGD | soluble |
